What follows are sequences tested on Escherichia coli TOP10 (assay: shrunken log2 fold change of peptide-encoding DNA abundance (4.5 h post-induction vs induction); higher = less antimicrobial activity (less host growth inhibition)). Details: time post-induction: 4.5 h; library: site-saturation at positions 5, 18, 19, 20.
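Also: peptides expressed intracellularly from a pBAD plasmid library in pooled LB shake-flask culture, induced with 0.3% L-arabinose, DNA abundance read by NGS, three biological replicates, DESeq2 with apeglm shrinkage.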

| Sequence | shrunken log2 fold change |
| --- | --- |
| RRIRLRPPRLPRPRPRPSNEPRP | -0.299 |
| RRIRSRPPRLPRPRPRPCTVPRP | -0.253 |
| RRIRTRPPRLPRPRPRPEFQPRP | -0.161 |
| RRIRHRPPRLPRPRPRPMYKPRP | -0.138 |
| RRIRNRPPRLPRPRPRPSLAPRP | 0.0683 |
| RRIRARPPRLPRPRPRPNEDPRP | 0.334 |
| RRIRHRPPRLPRPRPRPANDPRP | -0.0802 |
| RRIRPRPPRLPRPRPRPFWNPRP | -0.478 |
| RRIRERPPRLPRPRPRPQRFPRP | 0.0827 |
| RRIRIRPPRLPRPRPRPPPHPRP | 0.392 |
| RRIRVRPPRLPRPRPRPDMCPRP | 0.0884 |
| RRIRVRPPRLPRPRPRPQAKPRP | 0.0434 |
| RRIRRRPPRLPRPRPRPIHSPRP | 0.0881 |
| RRIRIRPPRLPRPRPRPWCEPRP | -0.639 |
| RRIRTRPPRLPRPRPRPIMQPRP | -0.201 |
| RRIRTRPPRLPRPRPRPCGGPRP | 0.169 |
| RRIRARPPRLPRPRPRPRKDPRP | 0.173 |
| RRIRCRPPRLPRPRPRPPEIPRP | 0.0794 |
| RRIRSRPPRLPRPRPRPLQQPRP | 0.553 |
| RRIRNRPPRLPRPRPRPCNKPRP | -0.334 |
| RRIRQRPPRLPRPRPRPESEPRP | 0.219 |
| RRIRKRPPRLPRPRPRPLWIPRP | 0.134 |
| RRIRYRPPRLPRPRPRPLWSPRP | 0.0381 |
| RRIRLRPPRLPRPRPRPFLKPRP | -0.0488 |
| RRIRKRPPRLPRPRPRPTLYPRP | 0.0394 |

| Sequence | shrunken log2 fold change |
| --- | --- |
| RRIRARPPRLPRPRPRPLKLPRP | -0.152 |
| RRIRWRPPRLPRPRPRPDPYPRP | -0.198 |
| RRIRNRPPRLPRPRPRPPIHPRP | -0.582 |
| RRIRDRPPRLPRPRPRPCLSPRP | 0.000319 |
| RRIRVRPPRLPRPRPRPENDPRP | -0.0879 |
| RRIRKRPPRLPRPRPRPPKDPRP | 0.498 |
| RRIRWRPPRLPRPRPRPFPTPRP | -0.12 |
| RRIRVRPPRLPRPRPRPIEKPRP | 0.0502 |
| RRIRERPPRLPRPRPRPCSKPRP | 0.2 |
| RRIRNRPPRLPRPRPRPWFQPRP | -0.109 |
| RRIRMRPPRLPRPRPRPWDRPRP | 0.158 |
| RRIRRRPPRLPRPRPRPRQHPRP | 0.288 |
| RRIRDRPPRLPRPRPRPQPPPRP | 0.424 |
| RRIRIRPPRLPRPRPRPPGRPRP | 0.336 |
| RRIRGRPPRLPRPRPRPRIWPRP | 0.836 |
| RRIRDRPPRLPRPRPRPHIIPRP | -1.27 |
| RRIRHRPPRLPRPRPRPPECPRP | 0.331 |
| RRIRERPPRLPRPRPRPRVLPRP | 0.161 |
| RRIRLRPPRLPRPRPRPYSNPRP | -0.212 |
| RRIRTRPPRLPRPRPRPRGRPRP | 0.593 |
| RRIRYRPPRLPRPRPRPAQSPRP | 0.256 |
| RRIRNRPPRLPRPRPRPFEKPRP | -0.0819 |
| RRIRWRPPRLPRPRPRPETIPRP | 0.322 |
| RRIRPRPPRLPRPRPRPQRHPRP | -0.14 |
| RRIRFRPPRLPRPRPRPGKYPRP | -0.586 |

| Sequence | shrunken log2 fold change |
| --- | --- |
| RRIRGRPPRLPRPRPRPCMQPRP | -0.0315 |
| RRIRERPPRLPRPRPRPEWLPRP | -0.062 |
| RRIRFRPPRLPRPRPRPIKPPRP | -0.4 |
| RRIRHRPPRLPRPRPRPGTWPRP | -0.0162 |
| RRIRMRPPRLPRPRPRPVGQPRP | -0.00911 |
| RRIRDRPPRLPRPRPRPFMPPRP | -0.124 |
| RRIRKRPPRLPRPRPRPPAIPRP | 0.657 |
| RRIRHRPPRLPRPRPRPCHNPRP | -0.261 |
| RRIRCRPPRLPRPRPRPAFLPRP | -0.214 |
| RRIRTRPPRLPRPRPRPETNPRP | 0.402 |
| RRIRKRPPRLPRPRPRPPFGPRP | 0.715 |
| RRIRFRPPRLPRPRPRPMMDPRP | 0.0995 |
| RRIRLRPPRLPRPRPRPHECPRP | 0.0907 |
| RRIRYRPPRLPRPRPRPQICPRP | -0.00591 |
| RRIRDRPPRLPRPRPRPLIYPRP | -0.653 |
| RRIRPRPPRLPRPRPRPSNWPRP | -0.184 |
| RRIRTRPPRLPRPRPRPGQVPRP | -0.0192 |
| RRIRTRPPRLPRPRPRPVRDPRP | 0.543 |
| RRIRPRPPRLPRPRPRPFAVPRP | -0.113 |
| RRIRYRPPRLPRPRPRPFNKPRP | -0.00496 |
| RRIRIRPPRLPRPRPRPHWDPRP | -0.248 |
| RRIRIRPPRLPRPRPRPWSDPRP | -0.0344 |
| RRIRARPPRLPRPRPRPGEPPRP | 0.601 |
| RRIRCRPPRLPRPRPRPDWTPRP | -0.268 |
| RRIRRRPPRLPRPRPRPGIKPRP | -0.291 |

| Sequence | shrunken log2 fold change |
| --- | --- |
| RRIRMRPPRLPRPRPRPKHWPRP | 0.91 |
| RRIRERPPRLPRPRPRPQRGPRP | -0.0773 |
| RRIRARPPRLPRPRPRPYGMPRP | -0.684 |
| RRIRTRPPRLPRPRPRPLTTPRP | -0.0573 |
| RRIRERPPRLPRPRPRPNGSPRP | -0.263 |
| RRIRSRPPRLPRPRPRPPIIPRP | -0.135 |
| RRIRYRPPRLPRPRPRPMSDPRP | 0.0277 |
| RRIRVRPPRLPRPRPRPWQCPRP | -0.00264 |
| RRIRSRPPRLPRPRPRPLIHPRP | -0.279 |
| RRIRYRPPRLPRPRPRPPLRPRP | -0.151 |
| RRIRARPPRLPRPRPRPPFWPRP | 0.914 |
| RRIRGRPPRLPRPRPRPDTAPRP | 1 |
| RRIRTRPPRLPRPRPRPFCCPRP | -0.309 |
| RRIRPRPPRLPRPRPRPRLPPRP | 0.383 |
| RRIRYRPPRLPRPRPRPFMRPRP | -0.499 |
| RRIRQRPPRLPRPRPRPPHGPRP | 1.06 |
| RRIRDRPPRLPRPRPRPGKKPRP | -0.00968 |
| RRIRYRPPRLPRPRPRPARFPRP | 0.181 |
| RRIRCRPPRLPRPRPRPNFMPRP | -0.448 |
| RRIRIRPPRLPRPRPRPTNWPRP | -0.128 |
| RRIRMRPPRLPRPRPRPTAMPRP | 1.14 |
| RRIRKRPPRLPRPRPRPSNLPRP | -0.0133 |
| RRIRDRPPRLPRPRPRPYVIPRP | -0.116 |
| RRIRVRPPRLPRPRPRPQQPPRP | 0.124 |
| RRIRVRPPRLPRPRPRPYDSPRP | -0.126 |

| Sequence | shrunken log2 fold change |
| --- | --- |
| RRIRRRPPRLPRPRPRPKMVPRP | 0.105 |
| RRIRHRPPRLPRPRPRPPHEPRP | 0.181 |
| RRIRTRPPRLPRPRPRPSWRPRP | 0.153 |
| RRIRPRPPRLPRPRPRPVGMPRP | -0.0812 |
| RRIRDRPPRLPRPRPRPCCQPRP | -0.0183 |
| RRIRERPPRLPRPRPRPLGNPRP | -0.477 |
| RRIRYRPPRLPRPRPRPWGSPRP | -0.482 |
| RRIRLRPPRLPRPRPRPALSPRP | 3.4 |
| RRIRMRPPRLPRPRPRPMAHPRP | -0.0858 |
| RRIRLRPPRLPRPRPRPSTCPRP | -0.179 |
| RRIRSRPPRLPRPRPRPIVRPRP | -0.11 |
| RRIRFRPPRLPRPRPRPKTPPRP | 0.207 |
| RRIRCRPPRLPRPRPRPTTPPRP | 0.227 |
| RRIRWRPPRLPRPRPRPWPEPRP | 0.167 |
| RRIRMRPPRLPRPRPRPNWSPRP | -0.18 |
| RRIRMRPPRLPRPRPRPCLSPRP | -0.0592 |
| RRIRLRPPRLPRPRPRPPNCPRP | -0.0466 |
| RRIRIRPPRLPRPRPRPQMGPRP | -0.0795 |
| RRIRLRPPRLPRPRPRPNVQPRP | -0.275 |
| RRIRMRPPRLPRPRPRPNPFPRP | 0.211 |
| RRIRSRPPRLPRPRPRPFYAPRP | -0.236 |
| RRIRSRPPRLPRPRPRPMTMPRP | -0.245 |
| RRIRDRPPRLPRPRPRPSCWPRP | 0.585 |
| RRIRERPPRLPRPRPRPNCAPRP | 0.172 |
| RRIRYRPPRLPRPRPRPQISPRP | -0.0191 |
